Consider 1 substance from US6586658.

Where only a bound is given, the exact number is not on record here.

For the data set, the target named is FaoA-GUS fusion protein (UniProt P05804).
Chain of UniProt P05804 (P05804 whole entry, looked up, the tested form may be a part): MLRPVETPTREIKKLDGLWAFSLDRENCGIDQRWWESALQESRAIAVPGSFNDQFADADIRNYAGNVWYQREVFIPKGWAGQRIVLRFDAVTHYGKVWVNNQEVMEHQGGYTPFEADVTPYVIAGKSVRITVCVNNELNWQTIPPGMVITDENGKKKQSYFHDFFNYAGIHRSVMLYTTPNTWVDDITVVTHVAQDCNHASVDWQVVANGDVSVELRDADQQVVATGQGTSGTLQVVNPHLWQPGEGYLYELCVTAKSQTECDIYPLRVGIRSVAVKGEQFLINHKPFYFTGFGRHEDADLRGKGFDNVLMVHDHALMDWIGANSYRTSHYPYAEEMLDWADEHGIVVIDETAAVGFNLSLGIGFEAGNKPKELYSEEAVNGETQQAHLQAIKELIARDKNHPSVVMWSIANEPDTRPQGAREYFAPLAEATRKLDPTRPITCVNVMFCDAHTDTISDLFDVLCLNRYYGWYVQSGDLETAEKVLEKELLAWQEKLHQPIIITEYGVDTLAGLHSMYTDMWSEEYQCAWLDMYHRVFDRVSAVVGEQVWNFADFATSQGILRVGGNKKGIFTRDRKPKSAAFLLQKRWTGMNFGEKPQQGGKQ

The substance “FaoB polypeptide of the Pseudomonas putida FaoAB fatty acid oxidation multienzyme complex” had a GUS activity (pmol MU/min), OS fraction of flax zygotic embryos, pmfG138:pmf224 (1:1) of 386 pmol MU/min; a GUS activity (pmol MU/min), OS fraction of flax zygotic embryos, pmfG138:pmf224 (1:3) of 440 pmol MU/min; a GUS activity (pmol MU/min), SN fraction of flax zygotic embryos, pmfG138:pmf224 (1:1) of 175 pmol MU/min; a GUS activity (pmol MU/min), SN fraction of flax zygotic embryos, pmfG138:pmf224 (1:3) of 214 pmol MU/min. The GUS activity (pmol MU/min), total homogenate of B. napus microspore embryos co-bombarded with pmfG138:pmf224 amounted to 85 pmol MU/min; the GUS activity in a GUS-FaoA fusion, transient expression in embryos was over 2 fold; the GUS specific activity, Ara-FaoA-GUS:pha-FaoB against Ara-FaoA-GUS, background subtracted, B. napus microspore embryos turned out to be 2 fold; the Specific activity (activity/mg prt), OS fraction of flax zygotic embryos, pmfG138:pmf224 (1:1) (activity/mg prt) amounted to 52.8. The substance also gave a Specific activity (activity/mg prt), OS fraction of flax zygotic embryos, pmfG138:pmf224 (1:3) (activity/mg prt) of 79; a Specific activity (activity/mg prt), SN fraction of flax zygotic embryos, pmfG138:pmf224 (1:1) (activity/mg prt) of 23.9; a Specific activity (activity/mg prt), SN fraction of flax zygotic embryos, pmfG138:pmf224 (1:3) (activity/mg prt) of 38.4; a Specific activity (activity/mg prt), total homogenate of B. napus microspore embryos co-bombarded with pmfG138:pmf224 (activity/mg prt) of 29.1.
